# Measurements as given in US20240066100A1 (published 2024).
# T1: human IL-18Rα ectodomain (amino acids 19-329), biotinylated (human, UniProt Q13478 19-329, biotin on the AviTag (BirA ligase))
# T1 construct: range 19-329; Secreted from insect cells with gp67 signal peptide (cleaved); also called hIL-18Rα; IL-18R1
# T1 sequence: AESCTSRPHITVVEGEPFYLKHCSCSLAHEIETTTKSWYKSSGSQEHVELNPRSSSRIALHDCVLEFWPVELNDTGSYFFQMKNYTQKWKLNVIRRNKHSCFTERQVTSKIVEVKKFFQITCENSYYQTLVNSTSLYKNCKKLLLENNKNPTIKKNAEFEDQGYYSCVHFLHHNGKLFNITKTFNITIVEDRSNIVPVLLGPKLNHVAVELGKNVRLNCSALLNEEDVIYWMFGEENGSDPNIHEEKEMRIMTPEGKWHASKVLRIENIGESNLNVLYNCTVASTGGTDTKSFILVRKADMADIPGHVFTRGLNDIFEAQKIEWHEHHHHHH
# T2: mouse IL-18BP (amino acids 31-194), biotinylated (mouse, UniProt Q9Z0M9 29-193, biotin on the AviTag (BirA ligase))
# T2 construct: Secreted from Expi293 cells with H7 signal peptide (cleaved); The printed residue range is the same as for the human protein and may not fit the mouse entry; also called mIL-18BP
# T2 sequence: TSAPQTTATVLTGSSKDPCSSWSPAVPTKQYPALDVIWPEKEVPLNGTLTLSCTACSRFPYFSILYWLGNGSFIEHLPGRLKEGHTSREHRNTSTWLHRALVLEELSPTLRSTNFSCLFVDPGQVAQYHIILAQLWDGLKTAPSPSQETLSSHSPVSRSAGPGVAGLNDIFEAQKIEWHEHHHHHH
# Assays:
# [1] = biological target: T1, human IL-18Rα ectodomain (amino acids …); assay: on-yeast binding isotherm, flow cytometry; exponent missing in the cell, derived from c3/c4
# [2] = biological target: T1, human IL-18Rα ectodomain (amino acids …); assay: on-yeast binding isotherm, flow cytometry; exponent missing in the cell, derived from 20 µM/c4
# [3] = biological target: T2, mouse IL-18BP (amino acids 31-194), …; assay: yeast binding isotherms and SPR
Binder,Kd [2] [nM],also measured
"human decoy-resistant IL-18 variant SEQ ID NO: 34 (ligand, Engineered variant of mature human IL-18; tag and display linker not in chains; also called hCS1; hCS-1) YFGKLESKLSVIRNLNDQVLFIDQGNRPLFEDMTDSDCRDNAPRTIFIISTYKDSQPRGKAVTISVKCEKISTLSCENKIISFKEMNPPDNIKDTKSDIIFFQRDVPGHKHKMQFESSSYEGYFLACEKERDLFKLILKKEDELGDRSIMFTVQNED",,Kd [1]: 64.4 nM
"human decoy-resistant IL-18 variant SEQ ID NO: 37 (ligand, Engineered variant of mature human IL-18; tag and display linker not in chains; also called hCS4) RFGKLESKLSVIRNLNDQVLFIDQGNRPLFEDMTDSDCRDNAPRTIFIISTYRDSQPRGKAVTISVKCEKISTLSCENKIISFKEMNPPDNIKDTKSDIIFFQRNVPGHKYKMQFESSSYEGYFLACEKERDLFKLILKKEDELGDRSIMFTVQNED",160,
"human decoy-resistant IL-18 variant SEQ ID NO: 36 (ligand, Engineered variant of mature human IL-18; tag and display linker not in chains; also called hCS3) RFGKLESKLSVIRNLNDQVLFIDQGNRPLFEDMTDSDCRDNAPRTIFIISTYKDSQPRGKAVTISVKCEKISTLSCENKIISFKEMNPPDNIKDTKSDIIFFQRDVPGHKHKMQFESSSYEGYFLACEKERDLFKLILKKEDELGDRSIMFTVQNED",,Kd [1]: 113 nM
"human decoy-resistant IL-18 variant SEQ ID NO: 52 (ligand, Engineered variant of mature human IL-18; display linker not in chains; also called hH3) RFGKLESRLSVIRNLNDQVLFIDQGNRPLFEDMTDSDCRDNAPRTIFIISTYKDSQPRGKAVTISVKCEKISTLSCENKIISFKEMNPPDNIKDTKSDIIFFQRDVPGHKHKMQFESSSYEGYFLACEKERDLFKLILKKEDELGDRSIMFTVQNED",83.8,
"human decoy-resistant IL-18 variant SEQ ID NO: 39 (ligand, Engineered variant of mature human IL-18; display linker not in chains; also called hA8) YFGKLESRLSVIRNLNDQVLFIDQGNRPLFEDMTDSDCRDNAPRTIFIISKYKDKQPRAQAVTISVKCEKISTLSCENKIISFKEMNPPDNIKDTKSDIIFFQRDVPGHKHKMQFESSSYEGYFLACEKERDLFKLILKKEDELGDRSIMFTIQNED",57.7,
"human decoy-resistant IL-18 variant SEQ ID NO: 57 (ligand, Engineered variant of mature human IL-18; display linker not in chains; also called hB9) RFGKHESKLSVIRNLNDQVLFIDQGNRPLFEDMTDSDCRDNAPRTIFIISTYRDSQPRGKAVTISVKCEKISTLSCENKIISFKEMNPPDNIKDTKSDIIFFERNVPGHKYKMQFESSSYEGYFLACEKERDLFKLILKKEDELGDRSIMFTVQNED",127,
"murine decoy-resistant IL-18 variant SEQ ID NO: 64 (ligand, Engineered variant of mature mouse IL-18; tag and display linker not in chains; also called mE8; E8) NFGRLHCTTAVIRNINDQVLFVDKRQPVFEDMTDIDQSASEPQTRLIIYVYTDGRRRGKAVTLSVKDSKMSTLSCKNKIISFEEMDPPENIDDIQSDLIFFQKKVPGHDKMEFESSLYEGHFLACQKEDDAFKLILKKKDENGDKSVMFTLTNLHQS",,Kd [3]: > 1000 nM
